Consider 3 molecules from paper PMC7804152, “Structural basis for the multi-activity factor Rad5 in replication stress tolerance”.

Data set [1] addresses T1, ScRad5 (Saccharomyces cerevisiae, UniProt P32849 1-1169).
T1 sequence: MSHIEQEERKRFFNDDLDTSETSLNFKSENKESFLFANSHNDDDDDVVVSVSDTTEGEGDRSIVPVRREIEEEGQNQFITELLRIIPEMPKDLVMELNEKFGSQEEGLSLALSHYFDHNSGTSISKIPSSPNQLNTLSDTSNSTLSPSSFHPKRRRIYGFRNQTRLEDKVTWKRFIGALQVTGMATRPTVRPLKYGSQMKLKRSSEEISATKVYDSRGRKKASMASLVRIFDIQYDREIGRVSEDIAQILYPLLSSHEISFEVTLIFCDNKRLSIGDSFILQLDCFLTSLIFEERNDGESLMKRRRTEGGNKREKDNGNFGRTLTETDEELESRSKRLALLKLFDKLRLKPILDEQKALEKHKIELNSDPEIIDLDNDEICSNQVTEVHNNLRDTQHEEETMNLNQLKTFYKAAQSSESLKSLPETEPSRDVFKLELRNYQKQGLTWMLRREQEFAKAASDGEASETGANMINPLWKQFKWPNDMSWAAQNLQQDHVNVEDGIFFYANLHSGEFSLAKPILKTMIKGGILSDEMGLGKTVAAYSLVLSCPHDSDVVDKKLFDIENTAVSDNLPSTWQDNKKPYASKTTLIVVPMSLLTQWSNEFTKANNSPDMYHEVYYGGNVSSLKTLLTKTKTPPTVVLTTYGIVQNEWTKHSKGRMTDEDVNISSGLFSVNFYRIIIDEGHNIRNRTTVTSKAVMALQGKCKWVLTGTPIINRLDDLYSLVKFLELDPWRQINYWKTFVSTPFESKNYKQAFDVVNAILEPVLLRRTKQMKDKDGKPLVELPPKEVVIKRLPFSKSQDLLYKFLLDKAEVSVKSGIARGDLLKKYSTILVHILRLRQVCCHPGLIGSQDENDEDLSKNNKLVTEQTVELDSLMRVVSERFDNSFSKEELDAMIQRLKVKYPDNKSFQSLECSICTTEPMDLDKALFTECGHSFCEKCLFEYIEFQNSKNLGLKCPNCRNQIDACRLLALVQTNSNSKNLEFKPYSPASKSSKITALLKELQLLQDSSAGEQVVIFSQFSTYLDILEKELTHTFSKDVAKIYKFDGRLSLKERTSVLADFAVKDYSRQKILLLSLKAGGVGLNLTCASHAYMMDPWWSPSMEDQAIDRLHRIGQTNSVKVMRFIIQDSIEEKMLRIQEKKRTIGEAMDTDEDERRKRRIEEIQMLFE
Kind of data set: pull-down; FP: 20 mM Tris pH 7.5, 50 mM (dsDNA, KlHIRAN) or 70 mM (ssDNA) NaCl, 2 mM MgCl2, 1 nM DNA, room temp; EMSA: 20 mM Tris pH 7.5, 100 mM KCl, 0.5 mM DTT, 3% glycerol, 2 mM MgCl2, 250 ug/mL BSA, 4 C; pull-down: 20 mM Tris pH 7.5, 50 mM NaCl, 4 C. The note with it: protein: recombinant; tags: N-terminal FLAG; label: 5'-biotin. (A gel shift assay detects complexes by their altered migration in electrophoresis.)

For data set [2], the target named is T2, HLTF (Homo sapiens, UniProt Q14527 25-1009).
T2 sequence: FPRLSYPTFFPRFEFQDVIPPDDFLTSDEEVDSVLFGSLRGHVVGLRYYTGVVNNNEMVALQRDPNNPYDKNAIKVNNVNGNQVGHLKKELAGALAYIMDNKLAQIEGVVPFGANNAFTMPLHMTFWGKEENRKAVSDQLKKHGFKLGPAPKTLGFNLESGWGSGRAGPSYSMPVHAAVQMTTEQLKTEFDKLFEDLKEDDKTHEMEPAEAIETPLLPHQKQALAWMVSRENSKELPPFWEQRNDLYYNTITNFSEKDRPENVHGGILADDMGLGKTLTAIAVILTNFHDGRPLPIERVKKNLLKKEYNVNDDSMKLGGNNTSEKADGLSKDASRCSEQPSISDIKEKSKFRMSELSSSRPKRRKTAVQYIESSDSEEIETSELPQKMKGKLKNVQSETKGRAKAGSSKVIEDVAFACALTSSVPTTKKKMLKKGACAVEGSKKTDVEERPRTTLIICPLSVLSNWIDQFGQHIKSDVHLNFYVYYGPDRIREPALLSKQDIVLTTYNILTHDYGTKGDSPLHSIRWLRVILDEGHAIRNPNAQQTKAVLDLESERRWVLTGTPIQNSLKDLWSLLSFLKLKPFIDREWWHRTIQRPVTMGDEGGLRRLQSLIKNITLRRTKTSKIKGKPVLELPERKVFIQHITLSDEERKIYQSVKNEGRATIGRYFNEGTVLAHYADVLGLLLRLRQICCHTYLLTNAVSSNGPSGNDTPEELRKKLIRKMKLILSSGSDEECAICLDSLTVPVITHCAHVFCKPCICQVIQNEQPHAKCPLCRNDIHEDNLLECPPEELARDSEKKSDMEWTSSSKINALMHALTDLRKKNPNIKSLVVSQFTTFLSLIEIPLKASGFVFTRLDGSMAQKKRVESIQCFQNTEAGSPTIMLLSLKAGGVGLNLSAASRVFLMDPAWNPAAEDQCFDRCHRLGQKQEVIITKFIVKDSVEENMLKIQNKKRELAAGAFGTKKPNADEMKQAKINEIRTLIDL
Nature of the data set: pull-down; 100 mM salt; FP: 20 mM Tris pH 7.5, 50 mM (dsDNA, KlHIRAN) or 70 mM (ssDNA) NaCl, 2 mM MgCl2, 1 nM DNA, room temp; EMSA: 20 mM Tris pH 7.5, 100 mM KCl, 0.5 mM DTT, 3% glycerol, 2 mM MgCl2, 250 ug/mL BSA, 4 C; pull-down: 20 mM Tris pH 7.5, 50 mM NaCl, 4 C. The note with it: protein: recombinant; tags: His (pET28a); label: 5'-biotin.

In data set [3] the target is T3, KlRad5 (Kluyveromyces lactis, UniProt Q6CJM4 163-1114).
T3 sequence: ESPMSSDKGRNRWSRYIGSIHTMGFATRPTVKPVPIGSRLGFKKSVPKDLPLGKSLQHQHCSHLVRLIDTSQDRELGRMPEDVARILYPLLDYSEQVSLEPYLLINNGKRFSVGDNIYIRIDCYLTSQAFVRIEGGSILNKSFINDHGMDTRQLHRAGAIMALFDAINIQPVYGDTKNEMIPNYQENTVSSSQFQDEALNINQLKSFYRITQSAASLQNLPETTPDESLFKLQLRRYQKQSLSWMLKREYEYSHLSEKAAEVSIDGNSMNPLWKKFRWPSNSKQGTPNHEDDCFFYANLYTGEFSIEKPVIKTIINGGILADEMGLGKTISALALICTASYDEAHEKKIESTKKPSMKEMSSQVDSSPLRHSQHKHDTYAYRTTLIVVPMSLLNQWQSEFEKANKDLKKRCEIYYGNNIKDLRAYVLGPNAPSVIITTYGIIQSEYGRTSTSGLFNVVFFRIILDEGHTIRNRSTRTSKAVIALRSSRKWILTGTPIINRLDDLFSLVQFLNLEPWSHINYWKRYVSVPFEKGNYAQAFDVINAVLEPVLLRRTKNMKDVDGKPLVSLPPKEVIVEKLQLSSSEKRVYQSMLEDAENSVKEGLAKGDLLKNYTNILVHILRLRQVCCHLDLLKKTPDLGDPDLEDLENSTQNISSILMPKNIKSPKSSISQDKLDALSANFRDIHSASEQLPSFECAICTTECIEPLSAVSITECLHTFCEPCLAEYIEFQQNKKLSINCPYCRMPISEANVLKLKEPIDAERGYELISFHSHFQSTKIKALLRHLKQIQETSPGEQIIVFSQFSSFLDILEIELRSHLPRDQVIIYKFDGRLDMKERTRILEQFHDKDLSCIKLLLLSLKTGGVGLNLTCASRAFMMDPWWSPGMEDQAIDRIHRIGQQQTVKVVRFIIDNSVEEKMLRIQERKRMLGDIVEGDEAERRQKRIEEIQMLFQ
Kind of data set: pull-down; suppressed by SSB; all salt concentrations tested; FP: 20 mM Tris pH 7.5, 50 mM (dsDNA, KlHIRAN) or 70 mM (ssDNA) NaCl, 2 mM MgCl2, 1 nM DNA, room temp; EMSA: 20 mM Tris pH 7.5, 100 mM KCl, 0.5 mM DTT, 3% glycerol, 2 mM MgCl2, 250 ug/mL BSA, 4 C; pull-down: 20 mM Tris pH 7.5, 50 mM NaCl, 4 C. To be noted: protein: recombinant; tags: none; label: 5'-biotin.

Data set [4] deals with T1, ScRad5. Nature of the data set: pull-down; similar to 5'-biotin; FP: 20 mM Tris pH 7.5, 50 mM (dsDNA, KlHIRAN) or 70 mM (ssDNA) NaCl, 2 mM MgCl2, 1 nM DNA, room temp; EMSA: 20 mM Tris pH 7.5, 100 mM KCl, 0.5 mM DTT, 3% glycerol, 2 mM MgCl2, 250 ug/mL BSA, 4 C; pull-down: 20 mM Tris pH 7.5, 50 mM NaCl, 4 C. To be noted: protein: recombinant; tags: N-terminal FLAG; label: 3'-biotin.

For data set [5], the target named is T3, KlRad5. Kind of data set: pull-down; similar to 5'-biotin at all salt concentrations; FP: 20 mM Tris pH 7.5, 50 mM (dsDNA, KlHIRAN) or 70 mM (ssDNA) NaCl, 2 mM MgCl2, 1 nM DNA, room temp; EMSA: 20 mM Tris pH 7.5, 100 mM KCl, 0.5 mM DTT, 3% glycerol, 2 mM MgCl2, 250 ug/mL BSA, 4 C; pull-down: 20 mM Tris pH 7.5, 50 mM NaCl, 4 C. To be noted: protein: recombinant; tags: none; label: 3'-biotin.

The target in data set [6] is T2, HLTF. Nature of the data set: pull-down; lower salt; FP: 20 mM Tris pH 7.5, 50 mM (dsDNA, KlHIRAN) or 70 mM (ssDNA) NaCl, 2 mM MgCl2, 1 nM DNA, room temp; EMSA: 20 mM Tris pH 7.5, 100 mM KCl, 0.5 mM DTT, 3% glycerol, 2 mM MgCl2, 250 ug/mL BSA, 4 C; pull-down: 20 mM Tris pH 7.5, 50 mM NaCl, 4 C. The note with it: protein: recombinant; tags: His (pET28a); label: 3'-biotin.

For a further data set, the target named is T4, KlHIRAN (Kluyveromyces lactis, UniProt Q6CJM4 174-341).
T4 sequence: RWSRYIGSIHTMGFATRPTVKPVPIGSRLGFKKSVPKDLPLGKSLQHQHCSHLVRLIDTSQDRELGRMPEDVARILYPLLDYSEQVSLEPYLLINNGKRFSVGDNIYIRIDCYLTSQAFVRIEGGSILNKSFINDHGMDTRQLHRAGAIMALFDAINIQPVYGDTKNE
Nature of the data set: EMSA; no preference for free 3'-OH; FP: 20 mM Tris pH 7.5, 50 mM (dsDNA, KlHIRAN) or 70 mM (ssDNA) NaCl, 2 mM MgCl2, 1 nM DNA, room temp; EMSA: 20 mM Tris pH 7.5, 100 mM KCl, 0.5 mM DTT, 3% glycerol, 2 mM MgCl2, 250 ug/mL BSA, 4 C; pull-down: 20 mM Tris pH 7.5, 50 mM NaCl, 4 C. To be noted: protein: recombinant; tags: intein-CBD cleaved off; label: 3'-FAM.

In the next data set the target is T5, ScHIRAN (Saccharomyces cerevisiae, UniProt P32849 171-375).
T5 sequence: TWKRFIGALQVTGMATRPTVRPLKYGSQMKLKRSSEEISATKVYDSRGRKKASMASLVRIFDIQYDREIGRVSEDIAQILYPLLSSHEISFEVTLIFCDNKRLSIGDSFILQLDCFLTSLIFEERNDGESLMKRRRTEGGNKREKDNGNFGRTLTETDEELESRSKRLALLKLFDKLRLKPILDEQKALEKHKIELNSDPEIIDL
Described as above. To be noted: protein: recombinant; tags: intein-CBD cleaved off; label: 3'-FAM.

TTTTTTTTTTTTTTTTTTTTTTTTT (ssDNA) [dT25, 5'-biotin]: the binding result with ScRad5 [1], with HLTF [2] and with KlRad5 [3] was “binds” throughout.
Take TTTTTTTTTTTTTTTTTTTTTTTTT (ssDNA) [dT25, 3'-biotin]: the binding result with ScRad5 [4], in the data set with KlRad5 [5] and in the data set with HLTF [6] was “binds” each time.
Take TTTTTTTTTT (ssDNA) [dT10, 3'-FAM]: the binding result with KlHIRAN and with ScHIRAN was “binds” throughout.
